What was measured:
3×MBT domain of L3MBTL1 = experiment: Triple SILAC pull-down, 3xMBT/3xMBTD355N ratio (cytoplasmic, nuclear and chromatin fractions of 293T cells); format: binding, human; details: for 3xMBT/D355N UNC Heavy: experiment with UNC0638 in heavy SILAC media; for 3xMBT/D355N UNC Light: experiment with UNC0638 in light SILAC media;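 as to all read-outs here: proteins quantified with MaxQuant, requiring at least two unique peptides and quantification in both label directions, normalized to the mean of proteins from a digested loading control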
G9a and GLP = biological target: T1, G9a and GLP (Homo sapiens, UniProt Q96KQ7+Q9H9B1); experiment: Triple SILAC pull-down after UNC0638 treatment of 293T cells, DMSO/UNC0638 ratio of protein captured by 3×MBT; format: cell-based; details: for Relative to UNC0638 UNC Heavy: UNC0638 in heavy SILAC media; for Relative to UNC0638 UNC Light: UNC0638 in light SILAC media; for Relative to UNC0638 Average: average of UNC Light and UNC Heavy experiments;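 as to all read-outs here: mass spectrometry (Q-Exactive) SILAC quantitation, DMSO/UNC0638 ratio computed after subtracting 3×MBTD355N mutant pull-down background, only proteins with at least twofold 3×MBT over mutant signal considered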
T1 construct: endogenous in cells; host or cells: HEK 293T
T1 sequence (Q96KQ7 2-1210 limits assumed): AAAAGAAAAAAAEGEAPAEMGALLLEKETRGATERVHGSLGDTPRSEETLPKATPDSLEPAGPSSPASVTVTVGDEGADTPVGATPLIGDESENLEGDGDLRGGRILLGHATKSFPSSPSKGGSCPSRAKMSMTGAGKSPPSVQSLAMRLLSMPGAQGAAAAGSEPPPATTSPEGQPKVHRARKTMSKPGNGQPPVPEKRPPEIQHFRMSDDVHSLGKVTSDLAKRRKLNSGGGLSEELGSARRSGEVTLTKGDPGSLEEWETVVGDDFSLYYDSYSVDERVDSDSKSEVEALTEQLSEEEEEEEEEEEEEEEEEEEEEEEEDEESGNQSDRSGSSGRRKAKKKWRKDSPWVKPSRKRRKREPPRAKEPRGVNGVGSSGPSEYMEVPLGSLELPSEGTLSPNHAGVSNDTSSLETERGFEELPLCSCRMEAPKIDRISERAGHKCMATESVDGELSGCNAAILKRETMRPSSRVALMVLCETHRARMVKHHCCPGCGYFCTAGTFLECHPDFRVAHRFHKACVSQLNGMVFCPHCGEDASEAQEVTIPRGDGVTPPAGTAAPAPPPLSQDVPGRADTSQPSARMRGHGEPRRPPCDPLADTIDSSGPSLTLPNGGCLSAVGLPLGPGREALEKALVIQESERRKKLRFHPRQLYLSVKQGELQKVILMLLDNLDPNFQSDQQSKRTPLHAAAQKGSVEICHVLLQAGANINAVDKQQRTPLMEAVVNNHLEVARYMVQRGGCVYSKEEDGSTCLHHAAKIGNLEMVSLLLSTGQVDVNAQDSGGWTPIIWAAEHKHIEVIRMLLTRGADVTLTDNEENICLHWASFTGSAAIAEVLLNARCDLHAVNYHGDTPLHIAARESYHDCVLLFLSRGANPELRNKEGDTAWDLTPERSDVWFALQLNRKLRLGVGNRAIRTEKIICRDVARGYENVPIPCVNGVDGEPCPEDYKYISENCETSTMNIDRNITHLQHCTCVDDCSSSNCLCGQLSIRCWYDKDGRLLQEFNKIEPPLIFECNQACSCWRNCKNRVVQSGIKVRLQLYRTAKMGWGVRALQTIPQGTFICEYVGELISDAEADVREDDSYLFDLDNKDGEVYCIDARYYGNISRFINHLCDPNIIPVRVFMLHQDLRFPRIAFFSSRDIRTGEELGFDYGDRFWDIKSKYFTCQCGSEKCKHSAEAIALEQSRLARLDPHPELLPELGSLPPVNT
T1 sequence (Q9H9B1 2-1298 limits assumed): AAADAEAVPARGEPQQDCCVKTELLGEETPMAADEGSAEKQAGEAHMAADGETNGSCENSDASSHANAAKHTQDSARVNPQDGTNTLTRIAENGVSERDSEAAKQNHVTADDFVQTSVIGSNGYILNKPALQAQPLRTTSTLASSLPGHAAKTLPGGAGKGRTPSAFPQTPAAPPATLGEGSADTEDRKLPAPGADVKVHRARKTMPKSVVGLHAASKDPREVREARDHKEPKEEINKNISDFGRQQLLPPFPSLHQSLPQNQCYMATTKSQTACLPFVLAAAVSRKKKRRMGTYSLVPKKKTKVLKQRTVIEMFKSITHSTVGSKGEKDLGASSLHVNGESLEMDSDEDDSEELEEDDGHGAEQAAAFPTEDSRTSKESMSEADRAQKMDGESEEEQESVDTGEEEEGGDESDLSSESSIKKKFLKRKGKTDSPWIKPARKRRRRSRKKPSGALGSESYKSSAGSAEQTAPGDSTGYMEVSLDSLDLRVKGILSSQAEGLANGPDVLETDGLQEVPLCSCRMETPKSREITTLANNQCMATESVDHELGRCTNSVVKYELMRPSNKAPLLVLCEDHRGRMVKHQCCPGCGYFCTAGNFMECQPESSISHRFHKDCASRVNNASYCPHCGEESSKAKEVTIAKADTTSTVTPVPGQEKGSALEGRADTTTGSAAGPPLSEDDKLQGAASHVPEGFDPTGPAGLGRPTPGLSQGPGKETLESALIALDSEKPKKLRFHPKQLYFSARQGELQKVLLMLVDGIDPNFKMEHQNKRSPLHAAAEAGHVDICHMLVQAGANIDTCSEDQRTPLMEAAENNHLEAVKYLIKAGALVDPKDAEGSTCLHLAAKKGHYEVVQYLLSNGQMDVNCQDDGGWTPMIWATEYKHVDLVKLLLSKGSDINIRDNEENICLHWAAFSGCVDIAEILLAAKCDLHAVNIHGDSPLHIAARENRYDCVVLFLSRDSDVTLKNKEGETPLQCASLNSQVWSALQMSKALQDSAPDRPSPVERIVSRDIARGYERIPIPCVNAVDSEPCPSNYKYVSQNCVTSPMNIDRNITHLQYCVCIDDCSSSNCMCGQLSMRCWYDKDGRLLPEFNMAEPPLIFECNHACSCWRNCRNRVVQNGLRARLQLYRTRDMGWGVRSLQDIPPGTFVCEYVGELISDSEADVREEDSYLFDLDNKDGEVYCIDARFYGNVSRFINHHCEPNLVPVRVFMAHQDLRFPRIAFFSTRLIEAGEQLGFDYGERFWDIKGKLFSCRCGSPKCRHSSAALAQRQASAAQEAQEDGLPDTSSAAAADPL

[1] = SILAC ratio, pull-down 3xMBT vs 3xMBTD355N
[2] = SILAC ratio DMSO/UNC0638 of protein pulled down with 3xMBT
[3] = SILAC ratio 3xMBT vs 3xMBTD355N pull-down, 293T cells, all values in log base 2
[4] = SILAC ratio DMSO relative to UNC0638, pull-down with 3xMBT, all values in log base 2

Row | Relative to UNC0638 UNC Heavy (G9a and GLP; [2]) [log base 2] | Relative to UNC0638 UNC Light (G9a and GLP; [2]) [log base 2] | Relative to UNC0638 Average (G9a and GLP) [log base 2] | Relative to UNC0638 UNC Heavy (G9a and GLP; [4]) [log base 2] | Relative to UNC0638 UNC Light (G9a and GLP; [4]) [log base 2] | Relative to UNC0638 Average (G9a and GLP; all values in log base 2) [log base 2] | Candidate G9a/GLP target (G9a and GLP; reduced association with 3xMBT after UNC0638 treatment) | Protein Ratios DMSO/UNC0638 (G9a and GLP; SILAC ratio of protein captured by 3xMBT, 293T cells treated 24 hours with UNC0638 at 2.5 μM or DMSO) | Substance | 3xMBT/D355N UNC Heavy (3×MBT domain of L3MBTL1; [1]) [log base 2] | 3xMBT/D355N UNC Light (3×MBT domain of L3MBTL1; [1]) [log base 2] | 3xMBT/D355N UNC Heavy (3×MBT domain of L3MBTL1; [3]) [log base 2] | 3xMBT/D355N UNC Light (3×MBT domain of L3MBTL1; [3]) [log base 2] | Protein Ratios 3xMBT/D355N (3×MBT domain of L3MBTL1; SILAC ratio, pull-down by 3xMBT vs 3xMBTD355N, 293T cells)
1 | 0.11 | 0.19 | 0.15 | – | – | – | – | – | PCBP1 | 2.16 | 2.49 | – | – | –
2 | – | – | – | 0.38 | −0.31 | 0.04 | – | – | ANXA2 | – | – | 2.86 | 2.78 | –
3 | 0.23 | 0.22 | 0.23 | – | – | – | – | – | HDGF | 1.65 | 2.78 | – | – | –
4 | – | – | – | −0.02 | 0.01 | 0.00 | – | – | CD3EAP | – | – | 2.30 | 1.86 | –
5 | 0.04 | 0.26 | 0.15 | – | – | – | – | – | PABPC1 | 2.91 | 3.44 | – | – | –
6 | – | – | – | 0.36 | −0.45 | −0.05 | – | – | GRB2 | – | – | 3.13 | 1.36 | –
7 | – | – | – | −1.93 | −0.07 | −1.00 | – | – | FERMT2 | – | – | 3.33 | 1.42 | –
8 | – | – | – | −0.14 | −0.46 | −0.30 | – | – | NBN | – | – | 1.68 | 1.52 | –
9 | 0.46 | −0.19 | 0.13 | – | – | – | – | – | DNMT1 | 1.70 | 2.02 | – | – | –
10 | 0.35 | 0.05 | 0.20 | – | – | – | – | – | HSPA5 | 0.70 | 2.32 | – | – | –
11 | 0.34 | 0.14 | 0.24 | – | – | – | – | – | CHD4 | 2.24 | 3.63 | – | – | –
12 | 0.07 | 0.26 | 0.17 | – | – | – | – | – | CORO1C | 2.83 | 3.30 | – | – | –
13 | – | – | – | 0.54 | −0.81 | −0.14 | – | – | RPTOR | – | – | 1.86 | 1.58 | –
14 | 0.60 | −0.23 | 0.19 | – | – | – | – | – | SH3GL1 | 1.99 | 2.38 | – | – | –
15 | 0.16 | 0.11 | 0.14 | – | – | – | – | – | SNRPA | 4.73 | 5.10 | – | – | –
16 | 0.47 | 0.32 | 0.39 | – | – | – | ✓ | – | SMARCA5 | 2.49 | 2.61 | – | – | –
17 | – | – | – | – | – | – | – | 1.4 | ATP-dependent DNA helicase Q1 | – | – | – | – | 18.8
18 | 0.10 | 0.26 | 0.18 | – | – | – | – | – | MCM6 | 2.48 | 2.53 | – | – | –
19 | 0.17 | 0.15 | 0.16 | – | – | – | – | – | PSIP1 | 2.72 | 2.92 | – | – | –
20 | 0.30 | 0.05 | 0.18 | – | – | – | – | – | EIF4A1 | 3.59 | 3.68 | – | – | –
21 | 0.15 | 0.22 | 0.18 | – | – | – | – | – | ILF2 | 3.72 | 3.45 | – | – | –

Row | Substance | Relative to UNC0638 UNC Heavy (G9a and GLP; [2]) [log base 2] | Relative to UNC0638 UNC Light (G9a and GLP; [2]) [log base 2] | Relative to UNC0638 Average (G9a and GLP) [log base 2] | Relative to UNC0638 UNC Heavy (G9a and GLP; [4]) [log base 2] | Relative to UNC0638 UNC Light (G9a and GLP; [4]) [log base 2] | Relative to UNC0638 Average (G9a and GLP; all values in log base 2) [log base 2] | Candidate G9a/GLP target (G9a and GLP; reduced association with 3xMBT after UNC0638 treatment) | Protein Ratios DMSO/UNC0638 (G9a and GLP; SILAC ratio of protein captured by 3xMBT, 293T cells treated 24 hours with UNC0638 at 2.5 μM or DMSO) | 3xMBT/D355N UNC Heavy (3×MBT domain of L3MBTL1; [1]) [log base 2] | 3xMBT/D355N UNC Light (3×MBT domain of L3MBTL1; [1]) [log base 2] | 3xMBT/D355N UNC Heavy (3×MBT domain of L3MBTL1; [3]) [log base 2] | 3xMBT/D355N UNC Light (3×MBT domain of L3MBTL1; [3]) [log base 2] | Protein Ratios 3xMBT/D355N (3×MBT domain of L3MBTL1; SILAC ratio, pull-down by 3xMBT vs 3xMBTD355N, 293T cells)
22 | NUMA1 | 0.90 | −0.32 | 0.29 | – | – | – | – | – | 0.83 | 3.33 | – | – | –

From US20140274782A1, “AFFINITY REAGENTS AND METHODS FOR DETECTION, PURIFICATION, AND PROTEOMIC ANALYSIS OF METHYLATED PROTEINS” (The Board of Trustees of the Leland Stanford Junior …, priority 2013, published 2014)
